Article doi:10.1101/366336

Tests used:
[1] = target: hPcf11 (in CF II);hClp1 (human;human) (UniProt O94913+Q92989); assay: filter binding; details: cap analog
[2] = target: T1, hClp1 (human) (UniProt Q92989); assay: filter binding; details: cap analog
T1 sequence: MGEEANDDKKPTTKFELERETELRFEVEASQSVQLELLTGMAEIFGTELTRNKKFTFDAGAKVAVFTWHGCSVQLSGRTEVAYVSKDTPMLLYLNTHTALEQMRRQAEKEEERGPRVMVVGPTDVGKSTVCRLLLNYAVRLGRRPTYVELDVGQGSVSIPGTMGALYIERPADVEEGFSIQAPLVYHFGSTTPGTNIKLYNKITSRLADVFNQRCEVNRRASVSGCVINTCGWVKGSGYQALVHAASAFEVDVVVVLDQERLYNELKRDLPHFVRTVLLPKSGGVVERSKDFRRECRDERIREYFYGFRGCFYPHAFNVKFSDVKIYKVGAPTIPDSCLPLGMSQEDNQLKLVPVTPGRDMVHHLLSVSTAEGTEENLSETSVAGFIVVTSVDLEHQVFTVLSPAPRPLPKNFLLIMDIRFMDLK

hPcf11 (in CF II);hClp1 (human;human), sequence (O94913 whole entry, one chain of several): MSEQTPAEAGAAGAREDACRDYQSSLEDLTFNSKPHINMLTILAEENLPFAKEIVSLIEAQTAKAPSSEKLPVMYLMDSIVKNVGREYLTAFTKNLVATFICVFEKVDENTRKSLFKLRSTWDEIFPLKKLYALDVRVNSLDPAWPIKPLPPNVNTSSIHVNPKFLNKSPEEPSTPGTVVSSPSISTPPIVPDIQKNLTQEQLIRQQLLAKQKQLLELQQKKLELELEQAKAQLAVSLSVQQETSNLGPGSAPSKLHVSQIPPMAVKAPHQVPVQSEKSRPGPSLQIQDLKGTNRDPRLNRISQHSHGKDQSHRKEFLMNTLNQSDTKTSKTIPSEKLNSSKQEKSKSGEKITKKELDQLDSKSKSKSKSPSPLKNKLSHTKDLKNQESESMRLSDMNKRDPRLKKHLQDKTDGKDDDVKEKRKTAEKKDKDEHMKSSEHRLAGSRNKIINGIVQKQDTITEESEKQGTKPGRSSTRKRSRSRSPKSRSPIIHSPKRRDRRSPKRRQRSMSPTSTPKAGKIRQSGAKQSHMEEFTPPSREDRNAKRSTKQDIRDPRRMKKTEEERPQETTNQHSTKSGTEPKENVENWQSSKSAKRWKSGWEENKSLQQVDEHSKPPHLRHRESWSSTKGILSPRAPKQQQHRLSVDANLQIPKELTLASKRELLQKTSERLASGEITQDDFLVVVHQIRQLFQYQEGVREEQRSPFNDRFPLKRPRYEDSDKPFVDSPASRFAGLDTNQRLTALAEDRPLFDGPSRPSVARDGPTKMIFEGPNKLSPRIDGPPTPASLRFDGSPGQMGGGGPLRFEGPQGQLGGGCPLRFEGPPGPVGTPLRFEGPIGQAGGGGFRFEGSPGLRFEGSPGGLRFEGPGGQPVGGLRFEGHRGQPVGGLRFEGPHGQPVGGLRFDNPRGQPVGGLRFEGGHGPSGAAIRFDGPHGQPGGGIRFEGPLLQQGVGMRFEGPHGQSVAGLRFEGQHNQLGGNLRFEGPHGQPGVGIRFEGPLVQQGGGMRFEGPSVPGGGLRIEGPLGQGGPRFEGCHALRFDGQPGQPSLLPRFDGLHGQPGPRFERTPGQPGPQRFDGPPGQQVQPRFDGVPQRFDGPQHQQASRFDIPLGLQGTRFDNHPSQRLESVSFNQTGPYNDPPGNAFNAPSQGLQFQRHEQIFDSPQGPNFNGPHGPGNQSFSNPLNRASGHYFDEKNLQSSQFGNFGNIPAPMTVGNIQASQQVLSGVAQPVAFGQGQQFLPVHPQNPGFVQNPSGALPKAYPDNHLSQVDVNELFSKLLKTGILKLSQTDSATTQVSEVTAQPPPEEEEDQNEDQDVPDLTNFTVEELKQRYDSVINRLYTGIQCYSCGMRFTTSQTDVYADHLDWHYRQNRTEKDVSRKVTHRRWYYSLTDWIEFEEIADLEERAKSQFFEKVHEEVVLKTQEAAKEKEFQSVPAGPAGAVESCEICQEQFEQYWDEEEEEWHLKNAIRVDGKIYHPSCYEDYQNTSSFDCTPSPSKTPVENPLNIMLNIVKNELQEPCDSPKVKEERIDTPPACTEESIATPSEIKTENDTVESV

Row | Substance | K half [1] [nM] | K half [2] [nM]
1 | SV40 late RNA | 0.4 | 140
2 | L3 RNA | 0.9 | 
